One block for each molecule: values may come before it.
Key:
[1] = target: T1, Recombinant CYP26B1 (UniProt Q9NR63)
T1 sequence: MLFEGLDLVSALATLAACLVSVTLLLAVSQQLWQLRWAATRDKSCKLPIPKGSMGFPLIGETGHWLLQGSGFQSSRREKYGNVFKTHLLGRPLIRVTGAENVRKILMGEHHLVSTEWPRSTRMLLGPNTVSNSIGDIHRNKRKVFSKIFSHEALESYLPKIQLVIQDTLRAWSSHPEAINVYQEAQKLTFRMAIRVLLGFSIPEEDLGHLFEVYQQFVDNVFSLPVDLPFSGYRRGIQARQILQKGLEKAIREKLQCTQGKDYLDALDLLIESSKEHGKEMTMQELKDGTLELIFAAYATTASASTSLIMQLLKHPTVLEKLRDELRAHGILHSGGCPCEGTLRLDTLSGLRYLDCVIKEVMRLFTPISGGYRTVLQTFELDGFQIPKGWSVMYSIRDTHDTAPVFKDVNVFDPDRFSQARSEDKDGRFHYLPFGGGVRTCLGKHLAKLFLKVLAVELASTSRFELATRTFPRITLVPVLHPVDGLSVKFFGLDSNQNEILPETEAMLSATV

[2] = target: CYP2C8 Supersomes (UniProt P10632)
[3] = target: CYP3A4 Supersomes (UniProt P08684)
Sequence of UniProt P08684 (P08684 whole entry): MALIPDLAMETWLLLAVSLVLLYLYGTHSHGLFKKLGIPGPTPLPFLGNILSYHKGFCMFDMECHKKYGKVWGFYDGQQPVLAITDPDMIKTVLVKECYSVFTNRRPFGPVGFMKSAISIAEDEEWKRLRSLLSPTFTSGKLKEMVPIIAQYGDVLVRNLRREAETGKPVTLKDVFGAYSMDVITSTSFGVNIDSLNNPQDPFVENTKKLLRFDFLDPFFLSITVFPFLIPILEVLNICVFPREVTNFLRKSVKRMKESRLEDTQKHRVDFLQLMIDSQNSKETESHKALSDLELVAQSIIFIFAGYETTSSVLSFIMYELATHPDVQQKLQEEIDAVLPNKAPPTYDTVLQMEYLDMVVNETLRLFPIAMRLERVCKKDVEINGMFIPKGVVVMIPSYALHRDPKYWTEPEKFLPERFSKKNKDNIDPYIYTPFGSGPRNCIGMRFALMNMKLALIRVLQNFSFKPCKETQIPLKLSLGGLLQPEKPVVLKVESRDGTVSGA

Sequence of UniProt P10632 (P10632 whole entry): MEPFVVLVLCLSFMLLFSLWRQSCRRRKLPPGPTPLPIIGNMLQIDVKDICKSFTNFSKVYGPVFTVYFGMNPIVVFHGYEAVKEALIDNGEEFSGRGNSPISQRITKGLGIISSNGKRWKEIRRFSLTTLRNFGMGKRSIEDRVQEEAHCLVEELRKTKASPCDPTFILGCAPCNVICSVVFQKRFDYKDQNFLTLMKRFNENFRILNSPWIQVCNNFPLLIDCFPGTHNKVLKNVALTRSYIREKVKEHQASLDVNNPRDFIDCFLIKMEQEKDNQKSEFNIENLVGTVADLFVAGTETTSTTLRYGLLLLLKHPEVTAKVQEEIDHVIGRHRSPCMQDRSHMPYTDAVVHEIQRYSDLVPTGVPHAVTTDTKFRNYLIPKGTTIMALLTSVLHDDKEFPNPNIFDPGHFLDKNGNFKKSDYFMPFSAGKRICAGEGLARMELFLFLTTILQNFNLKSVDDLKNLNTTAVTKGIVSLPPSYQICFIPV

apparent Km of 4-OH-RA formation by CYP26B1 with holo-CRABP-I as substrate [1]: 0.0217 µM | decrease of 4-OH-RA formation by CYP2C8 with 1 uM holo-CRABP-I against free atRA [2]: 98% | decrease of 4-OH-RA formation by CYP3A4 with 1 uM holo-CRABP-I against free atRA [3]: 98%
Molecule: Cellular retinoic acid binding protein I (CRABP-I) (from UniProt P29762 1-137) (natural protein)

apparent Km of 4-OH-RA formation by CYP26B1 with holo-CRABP-II as substrate [1]: 0.0243 µM
B1: Cellular retinoic acid binding protein II (CRABP-II) (natural protein)
chain: MPNFSGNWKIIRSENFEELLKVLGVNVMLRKIAVAAASKPAVEIKQEGDTFYIKTSTTVRTTEINFKVGEEFEEQTVDGRPCKSLVKWESENKMVCEQKLLKGEGPKTSWTRELTNDGELILTMTADDVVCTRVYVRE

— article PMC4997814
